In patent US20260069536A1, “COMPOSITIONS, SYSTEMS, AND METHODS FOR DELIVERY OF THERAPEUTICS” (THE JOHNS HOPKINS UNIVERSITY, priority 2022, published 2026):
Square brackets hold non-standard residues; d marks the D form. Ends that are not written are not given here. Nva = CCC[C@H](N)C(=O)O

What was measured:
[1] = test system: full MHC mismatch (C57BL/6 to BALB/c) mouse heart transplantation model; experiment: Mouse heart transplantation model, systemic Tofa with CTLA4-Ig; format: in vivo
dendritic cells = experiment: Maturation of dendritic cells under Tofa; format: cell-based
Treg = experiment: Suppressive activity of Treg under Tofa; format: cell-based
[2] = test system: mouse heart transplant model; experiment: Mouse heart transplant model, localized Tofa hydrogel with CTLA4-Ig; format: in vivo; conditions: localized release around the transplanted heart, single administration
From the text: FIG. 3A is a schematic of localized delivery of Tofacitinib (Tofa) microcrystals from a hydrogel (MTH) implanted in mice receiving heterotopic heart transplant. FIG. 3B is survival curves of C57Bl/6 mice receiving BALB/c heart transplants under the indicated treatments.
A peptide hydrogel (MAX8) that self-assembles at physiological conditions and encapsulated crystalline Tofa (cJAKi-Hydro) was used to assess that the localized release of a JAKi (Tofa) around the transplanted heart would have synergism with CTLA4-Ig as systemic Tofa administration (FIG. 3A).

[3] = Release of Ani2-NLCs from peptide gels in the absence of enzyme; format: physicochemical
Description: (§1) Preliminary experiments were conducted on the proteolytic stability of the peptides and the impact on the release of the encapsulated NLCs. To investigate protease-mediated release, comparative release rates of Ani2-NLCs were studied with respect to nVET2 and IVET1 gels in trypsin-rich and MMP12-rich environments. Ani2-NLCs are retained within the gels over extended periods of time due to their negative zeta potential that allows them to bind to the positively charged gel network.
(§2) Upon trypsinization, both IVET1 and nVET2 gels show faster release rates of Ani2-NLCs than those observed in the absence of the protease. […] These relative release trends of IVET1 and nVET2 gels are somewhat consistent with the degradation of the individual peptides by trypsin and MMP12. Trypsin hydrolyzes proteins at the carboxyl side of lysine and arginine amino acid residues and as such, the peptides IVET1 and nVET2 contain six cleavable sites with respect to trypsin. On the other hand, MMP12 recognizes a single cleavage site (PLG↓VR) within each of the peptide sequences. Thus, the observed rate of release of the NLCs is proportional to the number of protease-specific cleavage sites within the peptide sequence
At the end of 10 days, less than 20% of Ani2-NLCs were released in the absence of enzyme. Thus, two distinct release regimes of tofacitinib are attainable with simultaneous incorporation of the drug as microcrystalline deposits and as Tofa-NLCs.

[4] = Release of microcrystalline tofacitinib from peptide gels (UV-Vis); format: physicochemical; conditions: 32 mM microcrystalline deposits, after 10 days
Description: The release rates of microcrystalline tofacitinib from select peptide gels (MAX8 and HLT2) was determined as in Majumder, P., et al., Small 2020, 16, 2002791, incorporated herein by reference (FIG. 18A). As such, the release rates were established for the enzyme cleavable peptides (nVET1 and IVET1) at two different drug loads—16 mM and 32 mM. The release of tofacitinib was quantified using UV-Vis spectroscopy (λ=285 nm). […] The release profile is thus dependent on the final concentration of drug loaded and consistent with crystal dissolution being rate-determining.

trypsin = experiment: Protease-mediated release of NLC from peptide gels, trypsin; format: physicochemical; conditions: first 24 hours; for increase in release rate upon trypsinization: relative to absence of protease; for Ani2-NLCs released: with trypsin
Description: FIGS. 10A and 10B show protease responsive LNp release. […] FIG. 10B is a graph of the release profiles of Ani2-NLC from Peptide-4 gels in response to trypsin.
IVET2—SEQ ID NO: 7; IVET1—SEQ ID NO: 8; nVET2—SEQ ID NO: 9; nVET1—SEQ ID NO: 10.
as §1, §2

MMP12 [5] = target: T1, MMP12 (Homo sapiens, UniProt P39900); experiment: Protease-mediated release of NLC from peptide gels, MMP12; format: physicochemical; conditions: MMP12 treated gels
T1 sequence (P39900 106-470, species assumed): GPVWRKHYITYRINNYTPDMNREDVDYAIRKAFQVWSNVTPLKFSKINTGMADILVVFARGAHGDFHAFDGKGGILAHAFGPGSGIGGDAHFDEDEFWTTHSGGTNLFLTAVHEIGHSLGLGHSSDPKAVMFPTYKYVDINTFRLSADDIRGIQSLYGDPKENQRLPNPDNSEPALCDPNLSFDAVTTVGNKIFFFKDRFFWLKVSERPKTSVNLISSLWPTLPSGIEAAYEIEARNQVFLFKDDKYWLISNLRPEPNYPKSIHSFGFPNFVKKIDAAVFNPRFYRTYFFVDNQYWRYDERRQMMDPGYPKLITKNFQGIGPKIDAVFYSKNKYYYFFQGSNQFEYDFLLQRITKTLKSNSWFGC
Description: as §1, §2

MMP12 [6] = target: T1, MMP12; experiment: Rheology of MMP12-treated peptide gels; format: physicochemical; conditions: 150 ul, 1 wt % gels, 37° C., MMP12, 1×HBS pH 7.4, 12 days
Description: To provide further insight into the mechanistic effects of the gel release rates described above, the rheological properties of the MMP12-treated peptide gels were investigated. For this study, pre-formed IVET1 gels (150 ul, 1 wt %) were incubated at 37° C. with MMP12 (1×HBS, pH 7.4) and the storage modulus at 6.3 rad/s (obtained from frequency sweep measurements) was plotted at different time points for each gel. […] Despite peptide cleavage, the gels remained intact due to the stable cross-linked fiber network supported by the inter-hairpin hydrophobic contacts of the peptides upon self-assembly.

[7] = Gel stiffness (storage modulus G′) after NLC encapsulation; format: physicochemical; conditions: following encapsulation of neutral or negatively-charged NLCs
From the text: FIGS. 6A-6C show LNp encapsulation in a hydrogel. FIG. 6A is a graph of the comparative storage moduli (G′) of MAX8 gels with and without Neut-NLCs and Ani2-NLCs. FIG. 6B is a graph of the cumulative release profiles of Neut-NLC and Ani2-NLC from MAX8 gels. FIG. 6C is an image of LNp retention by MAX8 gels. A lipophilic dye (pink) was encapsulated within the NLCs to quantify release after 5 days.
To improve particle retention within the gel, the nanoparticles were modified to achieve a slightly negative surface charge (the hydrogel network is positively charged) by adding a small percentage of anionic surfactant (Glycolic Acid Ethoxylate Oleyl Ether) together with the Gelucire 44/14. Two different ratios of these surfactants were used until similarly sized nanoparticles were achieved.

[8] = Hydrogel toxicity after SQ injection in skin flap; conditions: SQ injection after flap raise, visual monitoring
Description: To this end, the condition of transplants was replicated by surgically separating the skin of the prospective area of injection (flap raise) followed by suturing the edges. After completion of the surgical procedure, empty hydrogel or Tofa containing hydrogel was injected SQ and the area monitored visually for any macroscopic sign of toxicity.

[9] = absence of enzyme, end of 10 days
[10] = absence of trypsin (control gel), first 24 hours

Compound	Ani2-NLCs released [3, 9]	drug release [4]	increase in release rate upon trypsinization (trypsin)	Ani2-NLCs released (trypsin)	release rate of Ani2-NLCs (MMP12 [5])	Ani2-NLCs released [3, 10]	also measured
C[C@@H]1CCN(C(=O)CC#N)C[C@@H]1N(C)c1ncnc2[nH]ccc12 [Tofa, 3-((3R,4R)-4-methyl-3-(methyl(7H-pyrrolo[2,3-d]pyrimidin-4-yl)amino)piperidin-1-yl)-3-oxopropanenitrile]							differentiation of TH1 effector T cells ([1]; Tofa+CTLA4-Ig): inhibition of the differentiation of TH1 effector T cells; regulatory T cells (Treg) ([1]; Tofa+CTLA4-Ig): accumulation of a high frequency of regulatory T cells; graft survival with ischemic hearts ([1]; Tofa+CTLA4-Ig, hearts kept ischemic for 4h before transplantation): improvement in survival was unaffected; graft survival ([1]; combination with CTLA4-Ig, Tofa POD-1 to POD6, twice daily via oral gavage): promoted long-term graft survival; up-regulation of MHC-II molecules (dendritic cells; dendritic cells): did not prevent the up-regulation of MHC-II molecules; maturation of dendritic cells (dendritic cells; upregulation of costimulatory molecules and secretion of pro-inflammatory cytokines): very effective at preventing the maturation of dendritic cells; suppressive activity of Treg (Treg): only minimally affected the suppressive activity of Treg; graft survival [2]: as effective at synergizing with systemic CTLA4-Ig as 16 oral gavage administrations
(nV)K(nV)E(nV)KVKV^DPPLGVRTK(nV)K(nV) ([Nva]K[Nva]E[Nva]KVKVPPLGVRTK[Nva]K[Nva]; also: P10 written ^DP (meaning not given here)) [nVET1]	less than 20%	less than 60%					
(nV)KTE(nV)KVKV^DPPLGVRTK(nV)K(nV) ([Nva]KTE[Nva]KVKVPPLGVRTK[Nva]K[Nva]; also: P10 written ^DP (meaning not given here)) [nVET2]			3 fold	30%	intermediate between their respective trypsin-rich and protease-free gel environments	10%	
IKVEIKVKV^DPPLGVRTKIKV (IKVEIKVKVPPLGVRTKIKV; also: P10 written ^DP (meaning not given here)) [IVET1]	less than 20%	less than 60%	~12 fold	17.4%	intermediate between their respective trypsin-rich and protease-free gel environments	1.5%	storage modulus at 6.3 rad/s (MMP12 [6]): relatively stable storage modulus
VKVKVKVKV^DPPTKVEVKVKV (VKVKVKVKVPPTKVEVKVKV; not fully specified (residue 10)) [MAX8]							gel stiffness [7]: stiffness is maintained; macroscopic sign of toxicity [8]: absence of any evidence of toxicity
